The series deals with Glutathione S-transferase (GST) (UniProt P08515 1-218). In words: bead fluorescence, confocal microscopy; 37 °C; BB: 20 mM HEPES pH 7.4, 120 mM NaCl, 5 mM KCl, 2 mM MgCl2; wash BB + 0.05% Tween 20; 37 °C, 40 min (section 2.1 gives another binding buffer: DPBS, 5 mM MgCl2). Particulars: protein: recombinant, tags: biotinylated, on streptavidin agarose beads, chain copies: 2.
Glutathione S-transferase (GST), sequence (P08515 whole entry): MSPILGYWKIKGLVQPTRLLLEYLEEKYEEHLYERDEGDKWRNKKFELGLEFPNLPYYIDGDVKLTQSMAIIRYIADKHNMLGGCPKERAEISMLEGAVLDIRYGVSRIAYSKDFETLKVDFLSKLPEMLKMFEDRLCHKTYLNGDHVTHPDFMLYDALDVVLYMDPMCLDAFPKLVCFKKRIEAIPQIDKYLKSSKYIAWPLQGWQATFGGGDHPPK

B1: Seq3 (ssDNA)
DNA: AGCGTCGGATACCACTACTATGCCGGTCGGGGGTTGGGGATCTCTCTTGGGGGAGGGTTATCATGGAGTTCGTGGTCAG
In general, Kd refers to the equilibrium constant for the complex coming apart. With B1, the dissociation constant (Kd) (label: FAM (also called AF488), two small stem-loops with a large loop (Mfold)) worked out at 34 ± 5.6 nM.

B2: Seq3-2 (ssDNA)
DNA: AGCGTCGGATACCACTACTATGCCGGTCGGGGGTTGGGGATCTCTCTTGGGGGAGGGTT
Take B2: the Kd (label: FAM) amounted to 118 ± 21.7 nM.

With TGCCGGTCGGGGGTTGGGGATCTCTCTTGGGGGAGGGTT (ssDNA) [Seq3-3], the Kd (label: FAM) turned out to be 268 ± 89.4 nM.

B3: Seq3-1 (ssDNA)
DNA: TGCCGGTCGGGGGTTGGGGATCTCTCTTGGGGGAGGGTTATCATGGAGTTCGTGGTCAG
On to B3, for which the Kd (label: FAM) was 29.3 ± 4.8 nM.

Source of the values: paper PMC11505714, “A Double-Stranded Aptamer for Highly Sensitive Fluorescent Detection of Glutathione S-Transferases”.
